Measurements published in paper PMC2923189, “An Oligopeptide Transporter of Mycobacterium tuberculosis Regulates Cytokine Release and Apoptosis of Infected Macrophages” (PLoS ONE, 2010).

Experiments:
Assay in all cases: radioligand binding
[1] = molecular target: OppAMTB mutant D494N (Mycobacterium tuberculosis) (UniProt P9WGU5)
[2] = molecular target: OppAMTB mutant F496D (Mycobacterium tuberculosis) (UniProt P9WGU5)
[3] = molecular target: OppAMTB mutant G109S (Mycobacterium tuberculosis) (UniProt P9WGU5)
[4] = molecular target: OppAMTB mutant N110A (Mycobacterium tuberculosis) (UniProt P9WGU5)
[5] = molecular target: OppAMTB mutant N230G (Mycobacterium tuberculosis) (UniProt P9WGU5)

Measured: loss of binding activity against wild type

glutathione (tripeptide)
> 50%: [1] | [2] | [3] | [4] | [5]

bradykinin (nonapeptide)
> 50%: [1] | [2] | [3] | [4] | [5]
